Earlier results in US6872537B1, “Assays for the detection of microtubule depolymerization inhibitors” (Regents of the University of California, priority 1998, dated 2005).

Details: literature values for comparison

Substance: p97: AAA ATPase cited for comparison [reference compound]
- ATPase activity of other AAA family members: 1 ATP/sec
